A short description of data set [1]: I-V relationship. As to conditions: glycan lost; control: wild type.
Data set [2] is described as follows: cell surface biotinylation, Western blot. As to conditions: glycan lost; control: wild type.

B1: TRPM5: N932Q (protein)
parent chain: MQDVQGPRPGSPGDAEDRRELGLHRGEVNFGGSGKKRGKFVRVPSGVAPSVLFDLLLAEWHLPAPNLVVSLVGEEQPFAMKSWLRDVLRKGLVKAAQSTGAWILTSALRVGLARHVGQAVRDHSLASTSTKVRVVAVGMASLGRVLHRRILEEAQEDFPVHYPEDDGGSQGPLCSLDSNLSHFILVEPGPPGKGDGLTELRLRLEKHISEQRAGYGGTGSIEIPVLCLLVNGDPNTLERISRAVEQAAPWLILVGSGGIADVLAALVNQPHLLVPKVAEKQFKEKFPSKHFSWEDIVRWTKLLQNITSHQHLLTVYDFEQEGSEELDTVILKALVKACKSHSQEPQDYLDELKLAVAWDRVDIAKSEIFNGDVEWKSCDLEEVMVDALVSNKPEFVRLFVDNGADVADFLTYGRLQELYRSVSRKSLLFDLLQRKQEEARLTLAGLGTQQAREPPAGPPAFSLHEVSRVLKDFLQDACRGFYQDGRPGDRRRAEKGPAKRPTGQKWLLDLNQKSENPWRDLFLWAVLQNRHEMATYFWAMGQEGVAAALAACKILKEMSHLETEAEAARATREAKYERLALDLFSECYSNSEARAFALLVRRNRCWSKTTCLHLATEADAKAFFAHDGVQAFLTRIWWGDMAAGTPILRLLGAFLCPALVYTNLITFSEEAPLRTGLEDLQDLDSLDTEKSPLYGLQSRVEELVEAPRAQGDRGPRAVFLLTRWRKFWGAPVTVFLGNVVMYFAFLFLFTYVLLVDFRPPPQGPSGPEVTLYFWVFTLVLEEIRQGFFTDEDTHLVKKFTLYVGDNWNKCDMVAIFLFIVGVTCRMLPSAFEAGRTVLAMDFMVFTLRLIHIFAIHKQLGPKIIVVERMMKDVFFFLFFLSVWLVAYGVTTQALLHPHDGRLEWIFRRVLYRPYLQIFGQIPLDEIDEARVNCSTHPLLLEDSPSCPSLYANWLVILLLVTFLLVTNVLLMNLLIAMFSYTFQVVQGNADMFWKFQRYNLIVEYHERPALAPPFILLSHLSLTLRRVFKKEAEHKREHLERDLPDPLDQKVVTWETVQKENFLSKMEKRRRDSEGEVLRKTAHRVDFIAKYLGGLREQEKRIKCLESQINYCSVLVSSVADVLAQGGGPRSSQHCGEGSQLVAADHRGGLDGWEQPGAGQPPSDT
Regarding B1, the “other: channel biophysical properties” value in data set [1] is “no change”. Also, the localisation_or_trafficking result in data set [2] is on record as “no change”.

The values are drawn from paper PMC3932411.
